Drawing on US20070160987A1, this text covers EC50, pigment aggregation in pre-dispersed (MSH-treated) melanophores transfected with the receptor for 2 substances.

The assay deals with endogenous human CXC chemokine receptor subtype 3 (CXCR3) (human) (UniProt P49682). The assay can be described thus: cell-based or functional assay.
Chain of UniProt P49682 (P49682 whole entry): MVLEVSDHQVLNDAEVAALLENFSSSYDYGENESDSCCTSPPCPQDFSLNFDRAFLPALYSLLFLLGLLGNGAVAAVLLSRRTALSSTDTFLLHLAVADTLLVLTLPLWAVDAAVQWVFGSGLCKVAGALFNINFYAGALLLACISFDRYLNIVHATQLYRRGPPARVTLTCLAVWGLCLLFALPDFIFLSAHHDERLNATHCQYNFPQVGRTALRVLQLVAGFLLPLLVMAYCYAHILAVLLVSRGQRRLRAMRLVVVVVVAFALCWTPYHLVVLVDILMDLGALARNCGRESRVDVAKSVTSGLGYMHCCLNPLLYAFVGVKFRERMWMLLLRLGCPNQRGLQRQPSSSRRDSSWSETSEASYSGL

“γ-interferon inducible protein-10 (IP-10) (from UniProt P02778 22-98) (ligand)” had an EC50, pigment aggregation in pre-dispersed (MSH-treated) melanophores transfected with the receptor of 0.15 nM.
“monokine inducible γ-interferon (Mig) (from UniProt Q07325 23-125) (ligand)” gave an EC50, pigment aggregation in pre-dispersed (MSH-treated) melanophores transfected with the receptor of 0.29 nM.
